Here are results for 5 molecules from patent publication US20260098102A1 (NATIONAL UNIVERSITY CORPORATION KOBE UNIVERSITY, published 2026).

Assay [1] deals with T1, human SIRPA_V10 (human, UniProt P78324 31-504).
T1 construct: FLAG-tagged (pFLAG V5-DEST), on 293α cells; also called human SIRPA Variant 10
Put plainly: cell-based ELISA on 293α cells expressing FLAG-tagged SIRPA_V10; Abs 490 normalized to FLAG tag [ii]. The procedure: (§1) The 293a cells, described in Example 1)-6, were prepared at 5× 10⁵ cells/mL in a 10% FBS-containing DMEM medium. pFLAG V5-DEST-SIRPA_V1-V10, pFLAG V5-DEST-monkey SIRPA, pFLAG V5-DEST-mouse SIRPA, or pFLAG V5-DEST was introduced into the cells using Lipofectamine LTX (Invitrogen), and 100 μL each was aliquoted to a 96-well plate (Corning Incorporated) and cultured overnight in a 10% FBS-containing DMEM medium at 37° C. under a 5% CO₂ condition. The obtained introduced cells were used for cell-based ELISA in a state that they adhered. After the culture supernatant was removed, 50 μL per well of hD13_HIL3, hD13_HIL4h, hD13_H2L2, hD13_H2L3, or cD13 prepared in Examples 6 and 7 or a control antibody was added to each of various SIRPA genes-introduced cells at a final concentration of 0 to 10,000 ng/ml, and the mixture was allowed to stand at 4° C. for one hour. Thereafter, binding to human SIRPA was evaluated in the same manner as in Example 5-1.

The target in assay [2] is T2, mouse SIRPA variant hmSIRPA_Δ2 (mouse (with human residues), UniProt P97797 35-513).
T2 construct: FLAG-tagged (pFLAG V5-DEST), on 293α cells; also called hmSIRPA_Δ42 [sic]
T2 chain: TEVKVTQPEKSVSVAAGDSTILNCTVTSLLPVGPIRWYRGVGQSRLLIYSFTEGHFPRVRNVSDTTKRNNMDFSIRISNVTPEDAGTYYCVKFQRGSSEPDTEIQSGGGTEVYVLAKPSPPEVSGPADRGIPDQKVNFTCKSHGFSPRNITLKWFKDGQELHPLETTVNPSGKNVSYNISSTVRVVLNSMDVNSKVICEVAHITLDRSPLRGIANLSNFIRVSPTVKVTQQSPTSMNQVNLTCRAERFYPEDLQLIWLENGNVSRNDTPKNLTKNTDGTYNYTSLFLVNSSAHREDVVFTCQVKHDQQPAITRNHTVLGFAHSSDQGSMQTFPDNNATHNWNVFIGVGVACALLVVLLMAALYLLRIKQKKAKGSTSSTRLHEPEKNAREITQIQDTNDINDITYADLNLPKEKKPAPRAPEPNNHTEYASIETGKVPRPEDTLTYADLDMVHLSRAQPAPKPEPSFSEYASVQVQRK
Put plainly: cell-based ELISA on 293α cells expressing FLAG-tagged hmSIRPA_Δ2; Abs 490 normalized to FLAG tag [iii]. The procedure:
After the culture supernatant of 293α cells into which the pFLAG V5-DEST-hmSIRPA_Δ0, Δ1, and Δ2 expression vector prepared in 2)-1-2-2 was introduced and the pFLAG V5-DEST-introduced 293α cells was removed, 50 μL per well of four different D13 humanized anti-human SIRPA antibodies and a chimeric anti-human SIRPA antibody diluted with 5% FBS-containing PBS to a final concentration of 10,000 ng/mL were added to these cells, and the mixture was allowed to stand at 4° C. for one hour. Further, 50 μL per well of an anti-FLAG M2 antibody (SIGMA) diluted with 5% FBS-containing PBS to a final concentration of 10,000 ng/mL was added to a well for detecting expression of each SIRPA construct, and the mixture was allowed to stand at 4° C. for one hour. Thereafter, binding to each construct was evaluated in the same manner as in the evaluation of the binding activity of the human SIRPA. Binding of anti-human SIRPA antibodies to each construct was standardized by expression of the FLAG tag.
(In general: In an ELISA, binding on a coated surface is turned into a signal by an enzyme label.)

Assay [3] has as its target T3, monkey SIRPA protein (cynomolgus monkey, UniProt P78324 31-504 (human entry)).
T3 construct: Expressed on 293α cells from pcDNA3.2 V5-DEST or pFLAG V5-DEST vectors; also called cynomolgus monkey SIRPA; cSIRPA
T3 chain: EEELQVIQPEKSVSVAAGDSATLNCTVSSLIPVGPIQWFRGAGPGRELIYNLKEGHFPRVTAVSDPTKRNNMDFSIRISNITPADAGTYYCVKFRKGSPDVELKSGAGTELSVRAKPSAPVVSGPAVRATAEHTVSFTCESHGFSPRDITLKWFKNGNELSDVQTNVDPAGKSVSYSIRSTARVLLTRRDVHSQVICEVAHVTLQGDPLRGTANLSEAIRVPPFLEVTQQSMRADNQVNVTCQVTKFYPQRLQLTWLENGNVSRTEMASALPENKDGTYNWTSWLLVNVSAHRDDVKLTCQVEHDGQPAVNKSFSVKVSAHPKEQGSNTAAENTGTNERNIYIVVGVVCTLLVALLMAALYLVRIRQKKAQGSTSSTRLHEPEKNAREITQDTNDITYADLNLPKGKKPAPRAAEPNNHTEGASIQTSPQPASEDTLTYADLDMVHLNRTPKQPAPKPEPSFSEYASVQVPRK
As to the kind of experiment: cell-based ELISA on 293α cells expressing FLAG-tagged monkey SIRPA; Abs 490 normalized to FLAG tag [iii]. The procedure:
as §1

Assay [4] deals with T4, mouse SIRPA BALB/c (mouse (BALB/c), UniProt P97797 35-513).
T4 construct: FLAG-tagged (pFLAG V5-DEST), on 293α cells
T4 chain: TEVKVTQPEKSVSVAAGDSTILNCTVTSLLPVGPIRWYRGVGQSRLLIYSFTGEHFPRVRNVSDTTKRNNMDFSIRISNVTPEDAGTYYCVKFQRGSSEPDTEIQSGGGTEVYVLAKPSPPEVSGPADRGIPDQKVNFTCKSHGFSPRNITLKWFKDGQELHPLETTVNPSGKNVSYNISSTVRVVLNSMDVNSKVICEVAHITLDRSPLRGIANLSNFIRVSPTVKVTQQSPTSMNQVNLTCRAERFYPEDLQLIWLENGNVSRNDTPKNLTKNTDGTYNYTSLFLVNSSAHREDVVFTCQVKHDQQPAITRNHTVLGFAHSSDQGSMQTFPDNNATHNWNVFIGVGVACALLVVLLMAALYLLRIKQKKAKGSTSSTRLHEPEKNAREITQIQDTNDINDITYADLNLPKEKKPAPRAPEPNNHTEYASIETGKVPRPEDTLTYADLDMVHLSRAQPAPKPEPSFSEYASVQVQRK
As to the kind of experiment: cell-based ELISA on 293α cells expressing FLAG-tagged mouse SIRPA (BALB/c); Abs 490 normalized to FLAG tag [ii]. The procedure: as §1

T1 sequence (P78324 other isoform, or with tags, fused parts or gaps limits assumed): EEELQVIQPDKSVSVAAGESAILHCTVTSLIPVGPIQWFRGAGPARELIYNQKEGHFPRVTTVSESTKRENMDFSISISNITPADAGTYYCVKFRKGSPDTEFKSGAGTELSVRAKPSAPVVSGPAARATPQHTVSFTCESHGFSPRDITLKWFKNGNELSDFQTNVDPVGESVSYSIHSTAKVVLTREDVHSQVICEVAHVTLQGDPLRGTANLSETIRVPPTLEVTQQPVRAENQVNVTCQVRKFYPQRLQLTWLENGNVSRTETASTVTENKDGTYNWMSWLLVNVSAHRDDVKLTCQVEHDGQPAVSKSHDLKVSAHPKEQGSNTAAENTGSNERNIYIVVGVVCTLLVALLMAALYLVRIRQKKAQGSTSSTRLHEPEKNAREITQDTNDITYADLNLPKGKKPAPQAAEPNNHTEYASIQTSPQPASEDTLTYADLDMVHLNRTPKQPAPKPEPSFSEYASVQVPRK

B1: humanized anti-SIRPA antibody hD13_H1L3 (antibody, human IgG4 S228P, kappa, F234A L235A, V domains shown)
VH: QVQLVESGGGVVQPGRSLRLSCAASGFTFSDYGMIWVRQAPGKGLEWVASISSSSSYIYYADSVKGRFTISRDNSKNRLYLQMNSLRAEDTAVYYCARRYYGFNYPFDYWGQGTMVTVSS
VL: DTQLTQSPSSLSASVGQRVTITCGASKSVRTYMHWYQQKPGKQPKLLIYSASNLEAGVPSRFSGSGSGTDFTLTISSLQPEDFATYYCQQSNEPPYTFGQGTKLEIKR
notes: hH1 heavy chain (IgG4proFALA) and hL3 kappa light chain; also called hD13_HIL3; HIL3 antibody
Broadly, the EC50 (read off the curve) is the midpoint of the concentration-response curve. With B1, the “EC50 (read off the curve)” value in assay [1] and in assay [3] was around 0.03 µg/mL each time. Besides, the binding result in assay [2] and in assay [4] was “no binding (tested: 10000 ng/mL)” in each case.

B2: humanized anti-SIRPA antibody hD13_H1L4 (antibody, human IgG4 S228P, kappa, F234A L235A, V domains shown)
VH: QVQLVESGGGVVQPGRSLRLSCAASGFTFSDYGMIWVRQAPGKGLEWVASISSSSSYIYYADSVKGRFTISRDNSKNRLYLQMNSLRAEDTAVYYCARRYYGFNYPFDYWGQGTMVTVSS
VL: DTVLTQSPDSLAVSLGQRATINCGASKSVRTYMHWYQQKPGQQPKLLIYSASNLEAGVPSRFSGSGSGTDFTLTISSLQAEDVAVYYCQQSNEPPYTFGQGTKVEIKR
notes: hH1 heavy chain (IgG4proFALA) and hL4 kappa light chain; also called hD13_HIL4; hD13_HIL4h
For B2, the “EC50 (read off the curve)” value in assay [1] and in assay [3] was around 0.03 µg/mL in each case. Further, the binding result in assay [2] and in assay [4] was “no binding (tested: 10000 ng/mL)” each time.

B3: humanized anti-SIRPA antibody hD13_H2L2 (antibody, human IgG4 S228P, kappa, F234A L235A, V domains shown)
VH: EVQLVESGGGVVQPGRSLRLSCAASGFTFSDYGMIWVRQAPGKGLEWVASISSSSSYIYYADSVKGRFTISRDNSKNTLYLQMNSLRAEDTAVYYCARRYYGFNYPFDYWGQGTMVTVSS
VL: AIQLTQSPSSLSASVGQRVTITCGASKSVRTYMHWYQQKPGKAPKLLIYSASNLEAGVPSRFSGSGSGTDFTLTISSLQPEDFATYYCQQSNEPPYTFGQGTKLEIKR
notes: hH2 heavy chain (IgG4proFALA) and hL2 kappa light chain; also called H2L2 antibody
For the molecule B3, the “EC50 (read off the curve)” value in assay [1] and in assay [3] was around 0.03 µg/mL in each case. The binding result in assay [2] and in assay [4] was “no binding (tested: 10000 ng/mL)” throughout.

B4: humanized anti-SIRPA antibody hD13_H2L3 (antibody, human IgG4 S228P, kappa, F234A L235A, V domains shown)
VH: EVQLVESGGGVVQPGRSLRLSCAASGFTFSDYGMIWVRQAPGKGLEWVASISSSSSYIYYADSVKGRFTISRDNSKNTLYLQMNSLRAEDTAVYYCARRYYGFNYPFDYWGQGTMVTVSS
VL: DTQLTQSPSSLSASVGQRVTITCGASKSVRTYMHWYQQKPGKQPKLLIYSASNLEAGVPSRFSGSGSGTDFTLTISSLQPEDFATYYCQQSNEPPYTFGQGTKLEIKR
notes: hH2 heavy chain (IgG4proFALA) and hL3 kappa light chain; also called H2L3 antibody
For B4, the “EC50 (read off the curve)” value in assay [1] and in assay [3] was around 0.03 µg/mL throughout. Moreover, the binding result in assay [2] and in assay [4] was “no binding (tested: 10000 ng/mL)” in each case.

B5: human chimeric anti-SIRPA antibody cD13 (antibody, human IgG4 S228P, kappa, F234A L235A, V domains shown)
VH: EVQLVESGGGLVQPGRSLKLSCLASGFTFSDYGMIWVRQAPGKGLEWVASISSSSSYIYYADTVKGRFTISRENAKNTLFLHMTSLRSEDTALYYCARRYYGFNYPFDYWGQGVMVTVSS
VL: DTVLTQSPALAVSLGQRVTISCGASKSVRTYMHWYQQKSGQQPKLLIYSASNLEAGVPSRFSGSGSGTDFTLTIDPVEADDIANYYCQQSNEPPYTFGAGTKLELKR
notes: Human IgG4proFALA heavy chain, human kappa light chain; also called cD13 (IgG4pf); human chimeric antibody D13
Regarding B5, the “EC50 (read off the curve)” value in assay [1] and in assay [3] was around 0.03 µg/mL each time. For the same molecule, the binding result in assay [2] and in assay [4] was “no binding (tested: 10000 ng/mL)” throughout.
